Tests used:
[1] = biological target: cofa_dicdi cofA (UniProt P0DJ26)
[2] = biological target: cof1_rat Cfl1 (UniProt P45592)
[3] = biological target: cof1_rat Cfl1 (UniProt P45592); remark: listed apart in the source

Sequence of cof1_rat Cfl1 (P45592 whole entry): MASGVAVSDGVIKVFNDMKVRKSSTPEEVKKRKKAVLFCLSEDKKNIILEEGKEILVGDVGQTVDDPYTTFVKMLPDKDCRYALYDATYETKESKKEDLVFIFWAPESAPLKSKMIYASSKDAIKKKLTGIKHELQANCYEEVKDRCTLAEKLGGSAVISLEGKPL
Sequence of Src substrate cortactin (Mus musculus), Q60598 Y421F;Y466F;Y482F (Q60598 whole entry Y421F/Y466F/Y482F): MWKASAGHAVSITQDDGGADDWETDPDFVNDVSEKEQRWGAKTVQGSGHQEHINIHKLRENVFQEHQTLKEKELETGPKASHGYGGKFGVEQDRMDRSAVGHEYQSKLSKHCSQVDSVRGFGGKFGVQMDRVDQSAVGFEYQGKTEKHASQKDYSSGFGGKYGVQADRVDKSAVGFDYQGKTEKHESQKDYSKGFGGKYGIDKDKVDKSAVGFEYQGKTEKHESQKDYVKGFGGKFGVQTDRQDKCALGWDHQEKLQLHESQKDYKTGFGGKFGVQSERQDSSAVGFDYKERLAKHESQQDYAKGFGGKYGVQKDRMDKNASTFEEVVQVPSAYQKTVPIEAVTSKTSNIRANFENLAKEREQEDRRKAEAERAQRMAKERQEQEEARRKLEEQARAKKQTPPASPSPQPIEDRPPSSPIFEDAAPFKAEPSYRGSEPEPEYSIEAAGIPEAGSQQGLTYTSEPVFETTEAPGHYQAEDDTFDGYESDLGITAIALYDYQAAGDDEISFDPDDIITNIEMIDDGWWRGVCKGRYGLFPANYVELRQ
Sequence of cofa_dicdi cofA (P0DJ26 whole entry): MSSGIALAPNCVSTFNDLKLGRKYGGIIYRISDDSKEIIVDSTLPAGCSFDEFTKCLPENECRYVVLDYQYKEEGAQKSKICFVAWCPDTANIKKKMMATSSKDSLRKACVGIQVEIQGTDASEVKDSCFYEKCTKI
Sequence of Src substrate cortactin (Mus musculus), Q60598 Y421E;Y466E;Y482E (Q60598 whole entry Y421E/Y466E/Y482E): as the sequence (Q60598 whole entry Y421F/Y466F/Y482F) above, with F421E, F466E, F482E counted along it

effect of a mutation on the interaction [1] | effect of a mutation on the interaction [2] | effect of a mutation on the interaction [3] | Substance
increasing interaction | increasing interaction | – | Src substrate cortactin (Mus musculus), Q60598 Y421F;Y466F;Y482F
– | – | decreasing interaction | Src substrate cortactin (Mus musculus), Q60598 Y421E;Y466E;Y482E
